From PMC8262862

Legend:
Assay in all cases: ELISA
[1] = target: B-Phuket HA
[2] = target: H1 HA
[3] = target: H10 HA
[4] = target: H13 HA
[5] = target: H14 HA
[6] = target: H2 HA
[7] = target: H3 HA
[8] = target: H5 HA
[9] = target: H6 HA
[10] = target: H7 HA
[11] = target: H8 HA
[12] = target: H9 HA

Row | Substance | Kd [1] | Kd [2] | Kd [3] | Kd [4] | Kd [5] | Kd [6] | Kd [7] | Kd [8] | Kd [9] | Kd [10] | Kd [11] | Kd [12]
1 | CR8033 | 0.11 nM |  |  |  |  |  |  |  |  |  |  | 
2 | FI6v3 | > 100 nM | 0.29 nM | 9 nM | 1.5 nM | 0.38 nM | 0.3 nM | 0.23 nM | 0.25 nM | 0.47 nM | 0.34 nM | 0.24 nM | 0.48 nM
